In US20090087478A1 (PROGENICS PHARMACEUTICALS NEVADA, published 2009):
Like-named read-outs stand apart in the source and are kept apart here.

B1: rPBA-3, chimeric recombinant form of anti-toxin A monoclonal antibody PBA-3 (wildtype, plasmids BD12584 heavy and BD12585 light) (antibody, V domains shown)
VH: QVQLQQSGPELVKPGASVRISCKASGFTFTSYHVNWVKQRPGQGLEWIGWIYPGNVNTEYNEKFKGKATLTADKSSSTAYMQLSSLTSEDSAVYFCASHEYYGSDWYFDVWGAGTTVTVSS
VL: DAVMTQTPLSLPVSLGDQASISCRSSQSLENRNGNTYLNWYLQKPGQSPQLLIYRVSNRFSGVLDRFSGSGSGTDFTLKISRVEAEDLGVYFCLQVTHVPYTFGGGTKLEIK
B2: Antibody F87, murine monoclonal anti-toxin B antibody (antibody, V domains shown)
VH: QVQLQQPGTELVKPGASVKLSCKASGYTFTNYWMHWVKQRPGQGLEWVGNINPSNGGTNYNEKFKSKATLTVDKSSSTAYMQLSSLTSEDSAFYYCARGRGPPYYSDYWGQGSTLTVSS
VL: NIQMTQSPASLSASVGETVTITCRASGNIHNYLAWYQQKQGKSPQLLVYNAKTLADGVPSRFSGSGSGTQYSLKINSLQPEDFGSYYCQHFWSTPFTFGSGTKLEIK
B3: Antibody 227 (or 3359), murine monoclonal anti-toxin A antibody (antibody, V domains shown)
VH: EVQLVESGGGLMKPGGSLKLSCAASGFAFGSYDMSWVRQTPEKRLEWVAYISSGGGITFYPDSVRGRFTISRDNAKNSLYMEMSSLRSEDTAMYYCARWDWDLFAYWGQGTLVTVSA
VL: DIKMTQSPSSMYTSLGERVTITCKASQDINSCLSWFQQKPGKSPKALIFRANILVDGVPSRFSGSGSGQDYSLTISSLEYEDLGIYYCLQYDEFPWTFGGGTRLEIK
B4: Antibody 3358 (or 543), murine monoclonal anti-toxin A antibody (antibody, V domains shown)
VH: QVQLQQPGAELVKPGASVRLSCKAGGYTFTSYWLHWVKQRPGQGLEWIGMIHPNSGSYDYSETFRTKATLTVDKSSDTAYMQLTSLTSEDSAVYYCARGGSNYDIFAYWGQGTTLTVSS
VL: NIVMTQSPKSMSMSVGERVTFNCRASENVGTYVFWYQQKPEQSPRLLIYGASNRYTGVPDRFTGSGSATDFTLTISGVQAEDLADYHCGQSYRHLTFGGGTKLEIK

Experiments:
[1] = target: T1, ToxA:2459-2710 (C-terminal eleven repeats of the toxin A CWB domain) (Clostridium difficile, UniProt P16154 2459-2710)
[2] = target: T2, ToxB:1807-2366 (CWB domain of C. difficile toxin B, expressed in E. coli) (Clostridium difficile, UniProt P18177 1807-2366); assay: SPR, toxin domain immobilised, apparent Kd
T2 construct: range 1807-2366

[3] = target: T1, ToxA:2459-2710 (C-terminal eleven …); assay: SPR, apparent KD

Binder	Kd [1]	Kd [2]	Kd [3]
B1	60 nM	–	–
B2	–	0.05 nM	–
B3	12 nM	–	–
B4	0.7 nM	–	< 30 nM
